Test results reported in patent US20260174875A1 (Novo Nordisk A/S, priority 2023, published 2026).
Numbered stars: 1 amine (or outer) side, 2 acyl side, 3 side chain; on linkers, the order of the positions; unused ones are H or OH. Square brackets hold non-standard residues; d marks the D form. Side chains are listed from the residue outwards. * marks the point of attachment. C20 diacid = O=C(O)CCCCCCCCCCCCCCCCCCC(=O)*; C18 diacid = O=C(O)CCCCCCCCCCCCCCCCC(=O)*; γGlu = O=C(O)[C@H](CCC(=O)[*:2])N[*:1]; AEEA = NCCOCCOCC(=O)O; Aib = CC(C)(N)C(=O)O

T1: human GIP receptor (human, UniProt P48546 22-466)
T1 sequence (looked up): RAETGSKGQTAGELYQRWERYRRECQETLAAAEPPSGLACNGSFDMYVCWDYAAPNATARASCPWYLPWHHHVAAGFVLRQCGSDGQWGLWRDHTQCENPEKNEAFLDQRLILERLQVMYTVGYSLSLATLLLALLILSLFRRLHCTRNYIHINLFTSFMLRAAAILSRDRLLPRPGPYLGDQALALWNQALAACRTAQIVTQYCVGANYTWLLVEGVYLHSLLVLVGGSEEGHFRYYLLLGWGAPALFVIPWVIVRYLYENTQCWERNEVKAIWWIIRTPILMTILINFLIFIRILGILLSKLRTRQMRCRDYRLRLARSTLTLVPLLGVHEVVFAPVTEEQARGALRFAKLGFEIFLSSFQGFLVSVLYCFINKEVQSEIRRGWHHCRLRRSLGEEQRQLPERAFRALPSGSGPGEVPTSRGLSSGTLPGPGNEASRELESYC

T2: human amylin-3(a) receptor (human, UniProt P30988 25-474; O60896 24-148)
T2 sequence (looked up) 1: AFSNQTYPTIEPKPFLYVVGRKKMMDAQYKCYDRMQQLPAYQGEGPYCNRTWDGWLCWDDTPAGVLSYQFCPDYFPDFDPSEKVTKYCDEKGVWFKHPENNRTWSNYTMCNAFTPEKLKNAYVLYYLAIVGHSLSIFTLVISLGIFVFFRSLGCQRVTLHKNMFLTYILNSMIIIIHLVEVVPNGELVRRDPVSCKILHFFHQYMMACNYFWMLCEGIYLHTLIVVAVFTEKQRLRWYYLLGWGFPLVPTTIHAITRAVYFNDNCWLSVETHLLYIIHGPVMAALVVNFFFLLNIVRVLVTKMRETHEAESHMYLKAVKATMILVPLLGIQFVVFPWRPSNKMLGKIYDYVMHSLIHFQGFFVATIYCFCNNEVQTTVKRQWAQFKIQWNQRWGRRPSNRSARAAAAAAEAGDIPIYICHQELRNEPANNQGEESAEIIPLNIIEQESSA
T2 sequence (looked up) 2: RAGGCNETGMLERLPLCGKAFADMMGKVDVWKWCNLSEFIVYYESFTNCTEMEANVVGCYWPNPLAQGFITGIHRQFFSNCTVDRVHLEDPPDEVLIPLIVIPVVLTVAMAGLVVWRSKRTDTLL

B1: Compound 70 (peptide)
peptide: H[Aib]HGTFTSDYSILLEEQAAREFIEWLLAGGPSRGAPPPSGGGEASELSTAALGRLSAELHK([AEEA-AEEA-γGlu-C18 diacid])LATLPRTETGSGSP-NH2
B2: Compound 71 (peptide)
peptide: H[Aib]HGTFTSDYSILLEEQAAREFIEWLLAGGPSRGAPPPSGGGEASHLSTQTQGRLSAELHK([AEEA-AEEA-γGlu-C18 diacid])LATLPRTETGSGSP-NH2
B3: Compound 72 (peptide)
peptide: Y[Aib]EGTFTSDYSILLEEQAAREFIEWLLAGGPSRGAPPPSGGGEASHLSTQTQGRLSAELHK([AEEA-AEEA-γGlu-C18 diacid])LATLPRTETGSGSP-NH2
B4: Compound 73 (peptide)
peptide: H[Aib]HGTFTSDYSILLEEQAAREFIEWLLAGGPSK([AEEA-AEEA-γGlu-C18 diacid])GEASQLSTAALGRLSAELHRLATLPRTETGSGSP-NH2
B5: Compound 74 (peptide)
peptide: Y[Aib]EGTFTSDYSILLEEQAAREFIEWLLAGGPSGGEASHLSTAQTQRLSAELHK([AEEA-AEEA-γGlu-C18 diacid])LATLPRTETGSGSP-NH2
B6: Compound 75 (peptide)
peptide: H[Aib]HGTFTSDYSILLEEQAAREFIEWLLAGGPSGGEASHLSTAQTQRLSAELHK([AEEA-AEEA-γGlu-C18 diacid])LATLPRTETGSGSP-NH2
B7: Compound 76 (peptide)
peptide: Y[Aib]EGTFTSDYSILLEEQAAREFIEWLLAGGPSSGAGQAPGQAPGASHLSTAQTQRLSAELHRLATLPK([AEEA-AEEA-γGlu-C20 diacid])TETGSGSP-NH2
B8: Compound 77 (peptide)
peptide: Y[Aib]EGTFTSDYSILLEEQAAREFIEWLLAGGPSSGAGQAPGQAPLASHLSTAQTQRLSAELHK([AEEA-AEEA-γGlu-C20 diacid])LATLPRTETGSGSP-NH2
B9: Compound 78 (peptide)
peptide: H[Aib]HGTFTSDYSILLEEQAAREFIEWLLAGGPSSGAGQAPGQAPGASHLSTAQTQRLSAK([AEEA-AEEA-γGlu-C18 diacid])LHRLATLPRTETGSGSP-NH2
B10: Compound 79 (peptide)
peptide: Y[Aib]EGTFTSDYSILLEEQAAREFIEWLLAGGPSSGEASHLSTAQTQRLSAK([AEEA-AEEA-γGlu-C18 diacid])LHRLATLPRTETGSGSP-NH2
B11: Compound 80 (peptide)
peptide: Y[Aib]EGTFTSDYSILLEEQAAREFIEWLLAGGPSSGEASHLSTAQTQRLSAELHRLK([AEEA-AEEA-γGlu-C18 diacid])TLPRTETGSGSP-NH2
B12: Compound 81 (peptide)
peptide: Y[Aib]EGTFTSDYSILLEEQAAREFIEWLLAGGPSSGEASHLSTAQTQRLSAELHRLATLPK([AEEA-AEEA-γGlu-C18 diacid])TETGSGSP-NH2
B13: Compound 82 (peptide)
peptide: H[Aib]HGTFTSDYSILLEEQAAREFIEWLLAGGPSSGEASHLSTAQTQRLSAK([AEEA-AEEA-γGlu-C18 diacid])LHRLATLPRTETGSGSP-NH2
B14: Compound 83 (peptide)
peptide: H[Aib]HGTFTSDYSILLEEQAAREFIEWLLAGGPSSGEASHLSTAQTQRLSAELHRLK([AEEA-AEEA-γGlu-C18 diacid])TLPRTETGSGSP-NH2
B15: Compound 84 (peptide)
peptide: H[Aib]HGTFTSDYSILLEEQAAREFIEWLLAGGPSSGEASHLSTAQTQRLSAELHRLATLPK([AEEA-AEEA-γGlu-C18 diacid])TETGSGSP-NH2
B16: Compound 85 (peptide)
peptide: H[Aib]HGTFTSDYSILLEEQAAREFIEWLLAGGPSSGEASHLSTAQTQRLSAELHK([AEEA-AEEA-γGlu-C18 diacid])LATLPRTETGSGAP-NH2
B17: Compound 86 (peptide)
peptide: H[Aib]HGTFTSDYSILLEEQAAREFIEWLLAGGPSK([AEEA-AEEA-γGlu-C18 diacid])GAPPPSGGGASELSTAALGRLSAELHRLATLPRTETGSGSP-NH2

Key:
Assay in all cases: cell-based or functional assay
[1] = biological target: T3, human GLP-1 receptor (human, UniProt P43220 24-463)
[2] = biological target: T1, human GIP receptor
[3] = biological target: T2, human amylin-3(a) receptor
[4] = biological target: T3, human GLP-1 receptor; remark: listed apart in the source
[5] = biological target: T1, human GIP receptor; remark: listed apart in the source
[6] = biological target: T2, human amylin-3(a) receptor; remark: listed apart in the source

Binder | hGLP-1R Potency, no HSA, EC50 [pM] [1] [pM] | hGIPR Potency, no HSA, EC50 [pM] [2] [pM] | hAMYR3 Potency, no HSA, EC50 [pM] [3] [pM] | hGLP-1R Potency, 1% HSA, EC50 [pM] [4] [pM] | hGIPR Potency, 1% HSA, EC50 [pM] [5] [pM] | hAMYR3 Potency, 1% HSA, EC50 [pM] [6] [pM]
B1 | 3.48 | 5.89 | 4.53 | 18.4 | 19.1 | 59.4
B2 | 3.34 | 2.77 | 8.66 | 18.4 | 9.28 | 274
B3 | 13.1 | 2.12 | 6.57 | 41.7 | 9.79 | 589
B4 | 4.55 | 4.98 | 1.99 | 54.1 | 96.5 | 61.5
B5 | 29.8 | 2.51 | 2.73 | 141 | 18.7 | 134
B6 | 3.66 | 2.65 | 2.49 | 25.2 | 11.9 | 110
B7 | 19.9 | 2.82 | 3.11 | 63.6 | 11.1 | 430
B8 | 19.7 | 2.53 | 3.13 | 51.4 | 13.4 | 382
B9 | 4.03 | 3.49 | 1.83 | 17.8 | 10.4 | 17.1
B10 | 38.7 | 4.7 | 3.53 | 168 | 24.7 | 53.4
B11 | 24.8 | 4.01 | 3.23 | 111 | 20.2 | 62.4
B12 | 16 | 3.31 | 4.07 | 51.4 | 15.8 | 188
B13 | 3.45 | 3.7 | 3.26 | 24.2 | 19.1 | 38
B14 | 2.3 | 2.92 | 2.9 | 9.89 | 13.6 | 45.7
B15 | 3.31 | 3 | 4.41 | 25.9 | 11.6 | 175
B16 | 3.52 | 2.71 | 4.4 | 30.3 | 14.6 | 250
B17 | 6.69 | 5.11 | 3.31 | 130 | 122 | 58.4
